According to the Human Domainome abundance scans (Beltran et al. 2025):
± gives the uncertainty stated by the source.

B1: CD2-associated protein, residues 109 to 169; numbered along this chain, Q9Y5K6 (parent)
chain: KKRQCKVLFEYIPQNEDELELKVGDIIDINEEVEEGWWSGTLNNKLGLFPSNFVKELEVTD

Variants of: B1
Assay: abundance fitness (aPCA) (normalised: wild type 0, dead -1); higher = more abundant; growth selection in yeast, the domain comes from the species named
Settings: Homo sapiens

Row | Variant | abundance fitness
1 | K22R | -0.244 ± 0.16
2 | K22H | 0.219 ± 0.29
3 | K22I | -0.308 ± 0.44
4 | K22E | -0.66 ± 0.38
5 | K22T | 0.216 ± 0.24
6 | K22C | -0.08 ± 0.39
7 | K22L | -0.952 ± 0.38
8 | K22W | -0.448 ± 0.23
9 | K22Q | -0.406 ± 0.19
10 | K22P | -0.612 ± 0.43
11 | K22S | -0.273 ± 0.15
12 | K22V | -0.388 ± 0.28
13 | K22G | -0.182 ± 0.27
14 | I26M | -0.369 ± 0.12
15 | I26T | -0.495 ± 0.13
16 | I26R | -0.813 ± 0.14
17 | I26W | -0.442 ± 0.28
18 | I26E | -0.484 ± 0.2
19 | I26V | -0.262 ± 0.11
20 | I26A | -0.912 ± 0.27
21 | I26G | -1.03 ± 0.25
22 | I26H | -0.391 ± 0.44
23 | I26S | -0.623 ± 0.12
24 | I26Q | -0.744 ± 0.25

Row | Variant | abundance fitness
25 | I26P | -0.818 ± 0.46
26 | I26D | -0.599 ± 0.31
27 | I26C | -0.722 ± 0.29
28 | I26K | -0.624 ± 0.17
29 | I26L | -0.245 ± 0.096
30 | D25L | -0.856 ± 0.32
31 | D25P | -0.401 ± 0.19
32 | D25R | -0.484 ± 0.22
33 | D25V | -0.733 ± 0.2
34 | D25K | -0.106 ± 0.3
35 | D25M | -0.771 ± 0.49
36 | D25G | -0.835 ± 0.24
37 | D25T | -0.495 ± 0.25
38 | D25C | -0.649 ± 0.27
39 | D25E | -0.066 ± 0.19
40 | D25A | -0.339 ± 0.15
41 | D25Q | -0.39 ± 0.34
42 | L19W | -1.18 ± 0.42
43 | L19S | -0.826 ± 0.45
44 | V23I | -0.143 ± 0.24
45 | V23K | 0.117 ± 0.19
46 | V23S | -0.414 ± 0.21
47 | V23H | -0.677 ± 0.38
48 | V23F | -0.687 ± 0.33

Row | Variant | abundance fitness
49 | V23A | -0.595 ± 0.44
50 | V23P | -0.08 ± 0.28
51 | V23R | -0.092 ± 0.14
52 | V23M | -0.34 ± 0.17
53 | V23L | -0.369 ± 0.2
54 | V23G | -0.458 ± 0.2
55 | V23T | -0.144 ± 0.18
56 | V23Q | -0.071 ± 0.17
57 | G24P | -0.838 ± 0.46
58 | G24L | -0.781 ± 0.22
59 | G24E | -0.227 ± 0.23
60 | G24D | -0.252 ± 0.25
61 | G24S | -0.611 ± 0.17
62 | G24W | -0.764 ± 0.27
63 | G24I | -0.226 ± 0.22
64 | G24R | -0.735 ± 0.25
65 | G24T | -0.559 ± 0.27
66 | G24V | -0.615 ± 0.26
67 | G24F | -0.57 ± 0.32
68 | G24A | -0.783 ± 0.28
69 | G24Y | -0.56 ± 0.4
70 | E20L | -0.157 ± 0.16
71 | E20M | -0.229 ± 0.24
72 | E20T | -0.409 ± 0.24

Row | Variant | abundance fitness
73 | E20R | -0.125 ± 0.17
74 | E20W | 0.012 ± 0.15
75 | E20V | -0.435 ± 0.25
76 | E20K | -0.002 ± 0.46
77 | E20G | -0.369 ± 0.19
78 | E20S | -0.317 ± 0.17
79 | E20A | -0.015 ± 0.18
80 | E20H | -0.214 ± 0.32
81 | E20I | -0.502 ± 0.34
82 | E20C | 0.107 ± 0.24
83 | I27M | -0.716 ± 0.24
84 | I27S | -0.641 ± 0.2
85 | I27T | -0.902 ± 0.27
86 | I27L | -0.436 ± 0.11
87 | I27A | -0.608 ± 0.18
88 | I27E | -0.951 ± 0.43
89 | I27Y | -0.684 ± 0.49
90 | I27C | -0.692 ± 0.32
91 | I27N | -0.542 ± 0.45
92 | I27Q | -0.541 ± 0.19
93 | I27K | -1.03 ± 0.42
94 | I27V | 0.03 ± 0.32
95 | I27W | -0.913 ± 0.24
96 | I27P | -0.61 ± 0.33

Row | Variant | abundance fitness
97 | I27G | -0.939 ± 0.44
98 | I27H | -0.614 ± 0.42
99 | N30A | -0.305 ± 0.47
100 | N30P | -0.438 ± 0.32
101 | N30S | -0.11 ± 0.1
102 | N30Q | -0.043 ± 0.19
103 | N30D | -0.123 ± 0.29
104 | N30M | -0.151 ± 0.18
105 | N30E | 0.302 ± 0.24
106 | N30C | -0.256 ± 0.42
107 | N30R | -0.171 ± 0.11
108 | N30V | 0.101 ± 0.15
109 | E32A | -0.38 ± 0.24
110 | E31A | -0.052 ± 0.1
111 | E31M | -0.26 ± 0.17
112 | E31L | -0.367 ± 0.12
113 | E31N | -0.016 ± 0.22
114 | E31V | -0.354 ± 0.1
115 | E31G | -0.187 ± 0.16
116 | E31T | -0.087 ± 0.12
117 | E31S | -0.33 ± 0.13
118 | E31W | -0.755 ± 0.2
119 | E31K | 0.109 ± 0.12
120 | E31P | -0.855 ± 0.46

Row | Variant | abundance fitness
121 | E31I | -0.116 ± 0.44
122 | E31D | 0.002 ± 0.23
123 | E31Y | -0.122 ± 0.25
124 | E31R | 0.039 ± 0.099
125 | E31F | -0.584 ± 0.49
126 | E31Q | -0.23 ± 0.15
127 | D28C | -0.264 ± 0.25
128 | D28R | -0.515 ± 0.12
129 | D28S | -0.368 ± 0.1
130 | D28G | -0.581 ± 0.13
131 | D28Y | -0.271 ± 0.16
132 | D28A | -0.536 ± 0.19
133 | D28L | -0.4 ± 0.12
134 | D28W | -0.268 ± 0.15
135 | D28T | -0.209 ± 0.14
136 | D28H | -0.136 ± 0.25
137 | D28E | 0.131 ± 0.11
138 | D28F | -0.335 ± 0.19
139 | D28V | -0.314 ± 0.082
140 | L21A | -0.838 ± 0.19
141 | L21R | -0.861 ± 0.26
142 | L21Q | -0.893 ± 0.42
143 | L21S | -0.719 ± 0.21
144 | L21I | -0.4 ± 0.16

Row | Variant | abundance fitness
145 | L21N | -0.355 ± 0.29
146 | L21V | -0.678 ± 0.22
147 | L21G | -0.348 ± 0.16
148 | L21M | -0.319 ± 0.37
149 | L21F | -0.826 ± 0.4
150 | I29E | -0.78 ± 0.36
151 | I29L | -0.219 ± 0.077
152 | I29A | -0.833 ± 0.35
153 | I29T | -0.543 ± 0.19
154 | I29Y | -0.886 ± 0.31
155 | I29F | -0.274 ± 0.15
156 | I29N | -0.431 ± 0.21
157 | I29R | -0.678 ± 0.22
158 | I29S | -0.737 ± 0.22
159 | I29G | -0.31 ± 0.24
160 | I29K | -0.63 ± 0.26
161 | I29P | -0.625 ± 0.21
162 | I29C | -0.57 ± 0.28
163 | I29M | 0.038 ± 0.16
164 | I29Q | -0.823 ± 0.27
165 | I29W | -0.693 ± 0.2
166 | I29H | -0.482 ± 0.28
167 | I29V | 0.085 ± 0.35
